# Where two headings read alike, the source gives them in different places. Non-standard residues stand in square brackets, D forms with d. Residues, ends and D or L forms follow the SMILES beside them. *: point of attachment. X2 = CC(C)C[C@@H](CN[C@@H](CC(C)C)C(N)=O)N*; pGlu = O=C1CC[C@@H](C(=O)O)N1
# Assays:
# [1] = biological target: T1, 3T3 fibroblast bombesin receptors (3T3 GRP receptor) (Mus musculus, UniProt P21729); assay: In vitro inhibition of [125I]GRP binding to 3T3 fibroblast bombesin receptors; design: species or system murine; conditions: for activity in the 3T3 GRP receptor binding assay (in words): Table 1
# T1 construct: Membranes from various tissues (rat brain, rat pancreas, rat anterior pituitary, SCLC, 3T3 cells) are prepared by homogenization; endogenous in cells; host or cells: 3T3 fibroblasts (membrane preparation)
# T1 sequence (P21729 whole entry): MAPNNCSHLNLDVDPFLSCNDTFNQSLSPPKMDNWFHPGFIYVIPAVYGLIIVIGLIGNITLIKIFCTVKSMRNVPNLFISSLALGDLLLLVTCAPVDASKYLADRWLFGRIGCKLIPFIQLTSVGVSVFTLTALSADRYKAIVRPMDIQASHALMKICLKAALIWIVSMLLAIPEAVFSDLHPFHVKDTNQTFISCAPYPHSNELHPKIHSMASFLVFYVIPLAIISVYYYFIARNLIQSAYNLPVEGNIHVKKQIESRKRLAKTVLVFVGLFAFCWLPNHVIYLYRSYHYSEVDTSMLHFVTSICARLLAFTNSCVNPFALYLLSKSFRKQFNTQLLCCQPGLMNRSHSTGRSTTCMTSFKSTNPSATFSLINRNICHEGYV
# Procedure: Phase 4—In Vitro Inhibition of [^125I] Gastrin Releasing Peptide (GRP) Binding to Bombesin Receptors
# Membranes from various tissues (rat brain, rat pancreas, rat anterior pituitary, SCLC, 3T3 cells) are prepared by homogenization in 50 mM TrisHCl containing 0.1% bovine serum albumin and 0.1 mg/ml bacitracin followed by two centrifugations (39,000×g×15 min., 4° C.) with an intermediate resuspension in-fresh buffer. For assay, aliquots […] are incubated with 0.5 nM [^125I]GRP (˜2000 Ci/mmol, Amersham Corp.) and various concentrations of the test compounds in a final volume of 0.5 ml. After a 30 minute incubation at 4° C., the binding reaction is terminated by rapid filtration through Whatman GF/C filters that have been pre-soaked in 0.3% aqueous polethyleneimine to reduce the level of nonspecific binding. The filters and tubes are washed three times with 4 ml aliquots of ice-cold buffer, and the radioactivity trapped on the filters is counted by gamma-spectrometry. Specific binding is defined as the total. [^125I]GRP bound minus that bound in the presence of 1000 nM. bombesin or a related peptide.
# A number of analogs of bombesin or GRP, each containing a non-peptide bond or a statine, AHPPA, or ACHPA, β-amino acid, or γ-amino acid residue, can be synthesized and tested in one or more of the above-described Phase 1-7 assays; the results of Phase 1 and 2 tests are given in Table 1 attached hereto. […] (3T3 GRP receptor and thymidine uptake data are expressed in IC50 (nM).) Table 1 also gives results for non-peptide bond-containing analogs of one other naturally-occurring peptide, Neuromedin C, whose C-terminal seven amino acids are similar to those of bombesin and GRP. (In Table 1, “Litorin” indicates a 9 residue peptide analog or its derivative, whereas “Neuromedin C” indicates a 10 residue analog or its derivative.)
# [2] = biological target: 3T3 fibroblast bombesin receptors (murine (3T3 murine fibroblasts)) (UniProt P21729)
"bombesin-stimulated [3H]Thymidine uptake, IC50 [2]",Compound,also measured
–,"CC(C)C[C@@H](CN[C@@H](CC(C)C)C(N)=O)NC(=O)[C@H](Cc1c[nH]cn1)NC(=O)[C@@H](C)NC(=O)[C@@H](NC(=O)[C@H](C)NC(=O)[C@H](Cc1c[nH]c2ccccc12)NC(=O)[C@H](CCC(N)=O)NC(=O)[C@@H]1CCC(=O)N1)C(C)C [BIM-26095, pGlu-Gln-Trp-Ala-Val-D-Ala-His-Leuψ[CH2NH]Leu-NH2] ([pGlu]QWAV[dA]H-X2)","IC50 ([1]; inhibition of [125I]GRP binding, 3T3 membranes, read-out: 3T3 GRP Receptor IC50): 2620 nM"
–,"CC(C)C[C@@H](CN[C@@H](CC(C)C)C(N)=O)NC(=O)[C@H](Cc1c[nH]cn1)NC(=O)CNC(=O)[C@@H](NC(=O)[C@H](C)NC(=O)[C@H](Cc1c[nH]c2ccccc12)NC(=O)[C@H](CCC(N)=O)NC(=O)[C@@H]1CCC(=O)N1)C(C)C [BIM-26101, pGlu-Gln-Trp-Ala-Val-Gly-His-Leuψ[CH2NH]Leu-NH2] ([pGlu]QWAVGH-X2)",activity in the 3T3 GRP receptor binding assay (in words) [1]: most active
–,"CC(C)C[C@@H](CN[C@@H](CC(C)C)C(N)=O)NC(=O)[C@H](Cc1c[nH]cn1)NC(=O)CNC(=O)[C@@H](NC(=O)[C@H](C)NC(=O)[C@H](Cc1c[nH]c2ccccc12)NC(=O)[C@H](CCC(N)=O)NC(=O)[C@H](N)Cc1ccccc1)C(C)C [BIM-26113, D-Phe-Gln-Trp-Ala-Val-Gly-His-Leuψ[CH2NH]Leu-NH2]",IC50 [1]: 5.8 nM; activity in the 3T3 GRP receptor binding assay (in words) [1]: active
1210 nM,"BIM-26095, pGlu-Gln-Trp-Ala-Val-D-Ala-His-Leuψ[CH2NH]Leu-NH2 (Litorin analog) (peptide)",–
107 nM,"BIM-26105, D-Ala-Asn-His-Trp-Ala-Val-D-ALa-His-Leuψ[CH2CH]Leu-NH2 (Neuromedin C analog) (peptide)",–
354 nM,"BIM-26106, desGly-D-Ala-His-Trp-Ala-Val-D-ALa-His-Leuψ[CH2CH]Leu-NH2 (Neuromedin C analog) (peptide)",–
154 nM,"BIM-26107, D-Phe-His-Trp-Ala-Val-Gly-His-Leuψ[CH2NH]Leu-NH2 (Neuromedin C analog) (peptide)",–
> 1000 nM,"BIM-26108, N-Ac-D-Ala-His-Trp-Ala-Val-Gly-His-Leuψ[CH2NH]Leu-NH2 (GRP (19-27) analog) (peptide)",–
9 nM,"BIM-26113, D-Phe-Gln-Trp-Ala-Val-Gly-His-Leuψ[CH2NH]Leu-NH2 (Litorin analog) (peptide)",–
28.6 nM,"BIM-26122, D-Phe-Gln-Trp-Ala-Val-Gly-His-Leu-NH2 (Litorin analog) (peptide)",–

# Reference: patent US20050026827A1, “Octapeptide bombesin analogs” (Societe de Conseils de Recherches et d'Applications …, priority 1987, published 2005)
